Data taken from paper PMC5507911, “Beyond the Debye length in high ionic strength solution: direct protein detection with field-effect transistors (FETs) in human serum”.

Columns and labels:
[1] = target: HIV-1 reverse transcriptase (HIV-1 RT) (HIV-1, UniProt P04585;P04585 588-1147;588-1027); experiment: EDL FET (AlGaN/GaN HEMT) biosensor; 1X PBS with 1% BSA; 1 fM-10 pM RT; current gain decreases with concentration; 1X PBS with 1% BSA (or undiluted human serum for CRP), 5 min incubation for HIV-1 RT, no washing; Vd 2 V, Vg pulse 0 to 0.5 V (HIV-1 RT); pH and temperature not stated; settings: copies: 1;1
[2] = target: T1, C-reactive protein (CRP) in clinical serum (human, UniProt P02741 19-224); experiment: EDL FET (AlGaN/GaN HEMT) biosensor; undiluted human sera; 0.34-23.2 mg/L CRP; 1X PBS with 1% BSA (or undiluted human serum for CRP), 5 min incubation for HIV-1 RT, no washing; Vd 2 V, Vg pulse 0 to 0.5 V (HIV-1 RT); pH and temperature not stated; settings: protein: native; chain copies: 5
T1 sequence: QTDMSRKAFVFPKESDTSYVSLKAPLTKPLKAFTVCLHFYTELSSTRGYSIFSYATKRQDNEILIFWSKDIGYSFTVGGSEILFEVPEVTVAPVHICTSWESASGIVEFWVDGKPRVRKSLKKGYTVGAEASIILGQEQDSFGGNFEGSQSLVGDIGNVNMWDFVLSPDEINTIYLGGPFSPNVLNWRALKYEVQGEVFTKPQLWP

C-reactive protein (CRP) = target: T2, C-reactive protein (CRP) (UniProt P02741 19-224); experiment: EDL FET (AlGaN/GaN HEMT) biosensor; 1X PBS with 1% BSA; 1 fM-100 nM CRP; current gain increases with concentration; 1X PBS with 1% BSA (or undiluted human serum for CRP), 5 min incubation for HIV-1 RT, no washing; Vd 2 V, Vg pulse 0 to 0.5 V (HIV-1 RT); pH and temperature not stated; settings: chain copies: 5
T2 sequence: T1 sequence

Q: Does TTTTTTTATACGTGAGCGTGCTGTCCCCTAAAGGTGATACGTCAGGGG (ssDNA, 5' thiol (SH)) [HIV-1 RT aptamer] bind [1]?
A: Result: binds

B1: CRP aptamer (ssDNA)
DNA: GGCAGGAAGACAAACACGATGGGGGGGTATGATTTGATGTGGTTGTTGCATGATCGTGGTCTGTGGTGCTGT
modifications: 5' thiol (SH)
Q: Does B1 bind [2]?
A: Result: binds

Q: Does B1 bind (C-reactive protein (CRP))?
A: Result: binds
